Test system: MS2 coat protein
Test: apparent KD of MS2 coat protein; higher = weaker reporter binding
Settings: Eterna round: R107
In short: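 Binding of SNAP-549-labelled MS2 coat protein was measured on designed RNA switches transcribed on-chip from Illumina sequencing clusters. The protein rose in twofold steps from 0.7 or 1.5 nM to 3 µM, with 0.8–1.5 h per step early on and 10–20 min per step later, in 100 mM Tris-HCl pH 7.5, 80 mM KCl, 4 mM MgCl2, without or with constant ligand. Each design's apparent KD is the median of fits to its normalised cluster binding curves.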

[1] = input ligand: theophylline 20 uM
[2] = input ligand: theophylline 2 mM
[3] = input ligand: tryptophan 2.4 mM

| Sequence | apparent KD of MS2 coat protein (input ligand: arginine 13.2 mM) [nM] | apparent KD of MS2 coat protein (input ligand: none) [nM] | apparent KD of MS2 coat protein [1] [nM] | apparent KD of MS2 coat protein [2] [nM] | apparent KD of MS2 coat protein [3] [nM] |
| --- | --- | --- | --- | --- | --- |
| UUCAGCUAGUCGGCCGCCACUACAUGAGGAUCACCCAUGUAGGUCCACACUGCUUCGGCAGUGAGUAGGACCGGGACUAGCUGAG | 7.07 | 9.66 | 15.2 | 10.5 | 15.4 |
| UUCAGCUAGUCGGCCGCCACUACUUGAGGAUCACCCAAGUAAUCCUAACACUGCUUCGGCAGUGGUAGGACCGGGACUAGCUGAG | 8.78 | 10.9 | 12 | 11.5 | 15.1 |
| UUCUUUAAGUCGGCCGCCACUGAAACAUGAGGAUCACCCAUGUAUAUUUGUGUAAAGGUGGAUUACAGGACCGGGACUAUAGUAA [JR_Nu23_ExcTryptoB_Sub024] | 12.1 | – | 13.6 | 11.7 | – |
| UUGUGGCGCUCGGCCGCCACUCCGACAUGAGGAUCACCCAUGUUCUACAUGAGGAUCACCCAUGUGAGGACCGGGAGACACAACC [Exclusion Tryptophan B GF12] | 137 | 126 | 102 | 134 | 165 |
| UUGUUGUUUGGAAGGAGCGUGUAUGAUUAAGAACAUGAGGAUCACCCAUGUUGUAGGAUAGCACAGGUAGGUCGCCGGGUGGUGG [11.W] | 18.8 | 14.8 | 22.5 | 23.5 | 14.6 |
| UUGUUGUUUGGAAGGAGCGUGUAUGAUUAAGAACAUGAGGAUCACCCAUGUUGUAGGGUAGCACAGGUAGGUCGCCGGGUGGUGG [11.V] | 34.8 | 25.1 | 36.8 | 31.2 | 21.1 |
| UUUAAAAUAACAGAUACCAGCGUGUUAUAAAACAUGAGGAUCACCCAUGUAGUGAUCAAGCGCCCUUGGCAGCUGGUAUUUUAGG [7.E] | 186 | – | 161 | – | 132 |
| UUUACAUGAGGAUCACCCAUGUGCCAUGAUACCAGACAUGAAAAUGUCCCUUGGCAGCAUGAAAGAUCCACGUCGGAAACGACGG [Krpole] | 72.2 | – | 248 | – | 113 |
| UUUGAGAUAACAGAUACCAGCGUGUUAUAAAACAUGAGGAUCACCCAUGUAGUGAUCAAGCGCCCUUGGCAGCUGGUGUUUUAGG [7.H] | 21.1 | 102 | 383 | 469 | 141 |
| UUUUACAUGAGGAUCACCCAUGUACAUGGGCGAGGACCGGUACGGCCGCCACUCGUGGGACCCACGGGCCCGCUUAGUGGGUACA [LarryB_001] | 58.3 | 87.5 | 168 | 189 | 57.4 |
| UUUUACGCAAGUAAUUCCCGGGAACCGGAUACCAGCUCCUCCAACAGCCCUUGGCAGCCGACCACAUGAGGAUCACCCAUGUUUC [theeternabot_exclusion_MS2_Theo_A_28] | 12 | – | 16.1 | – | 12.7 |
| UUUUAGCAUCGAAGGAGCGCUGGUAGGUGACACAUGAGGAUCACCCAUGUGCUCCUUGCCGAGCAGGUAGGUCGCGAUGCUAUUU [SSAB NP+V+V2 #8] | 31.4 | 52.6 | 62.9 | 73.3 | 46.2 |
| UUUUUUAACUGAAGGAGCGUCACAUGAGGAUCACCCAUGUAUUAGAUGAGAAGGAUCUUGUGGCAGGUAGGUCGCAGAGGAAGGG [e-argB-V] | 99.6 | 389 | 187 | 181 | 136 |
